Entries after “also recorded” stand apart in the source; their conditions may differ.

Assay [1] addresses T1, Sortilin (Homo sapiens, UniProt Q99523).
T1 sequence (Q99523 78-831): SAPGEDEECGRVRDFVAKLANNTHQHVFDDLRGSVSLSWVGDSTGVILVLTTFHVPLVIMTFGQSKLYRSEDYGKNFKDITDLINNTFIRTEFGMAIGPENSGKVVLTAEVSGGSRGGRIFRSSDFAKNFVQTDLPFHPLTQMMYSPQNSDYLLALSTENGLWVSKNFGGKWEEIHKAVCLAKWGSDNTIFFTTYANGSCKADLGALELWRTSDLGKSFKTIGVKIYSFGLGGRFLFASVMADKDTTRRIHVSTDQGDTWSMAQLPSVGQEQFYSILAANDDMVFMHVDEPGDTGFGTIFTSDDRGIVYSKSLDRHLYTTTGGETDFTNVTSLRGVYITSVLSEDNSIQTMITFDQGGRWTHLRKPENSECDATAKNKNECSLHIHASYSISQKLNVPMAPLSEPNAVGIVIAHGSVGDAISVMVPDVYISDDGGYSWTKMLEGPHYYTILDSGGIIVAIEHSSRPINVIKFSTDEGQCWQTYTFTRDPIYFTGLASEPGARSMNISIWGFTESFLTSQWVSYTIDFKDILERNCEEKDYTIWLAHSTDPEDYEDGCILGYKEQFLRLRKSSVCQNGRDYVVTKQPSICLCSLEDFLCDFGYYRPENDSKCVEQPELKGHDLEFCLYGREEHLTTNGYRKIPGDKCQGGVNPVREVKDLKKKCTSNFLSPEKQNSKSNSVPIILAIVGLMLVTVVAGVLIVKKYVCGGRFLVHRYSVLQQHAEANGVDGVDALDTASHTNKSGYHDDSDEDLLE
In words: Cell-based PGRN-conditioned media assay (PGRN ELISA). Particulars: sortilin-expressing HEK293T; 36-48 h; 1 or 10 μM pro-peptide, 6.7 or 67 nM antibody. Also on record: expressed in transfected cells; host or cells: HEK293T. The protocol:
HEK293T cells were transiently transfected with constructs for expressing sortilin or LacZ (control) and incubated with PGRN-conditioned media collected from PGRN transfected HEK293T cells. PGRN levels remaining in the media were measured after 36-48 h using a PGRN ELISA Duoset kit (R&D Systems). Cells were incubated with 1 or 10 μM sortilin pro-peptide, 6.7 nM or 67 nM goat anti-sortilin antibody (SORT1 Ab), or 67 nM control IgG.
To prepare hPGRN-conditioned media, Hek293T cells were transiently transfected with full-length, untagged human PGRN (pCMV-Sport6, Thermo Scientific) using Fugene HD (Promega). Media containing PGRN was collected after 48 h. For the experiment, Hek293T cells were transiently transfected with human Sortilin (untagged in Topo3.3) or lacZ (control, Topo3.3) using Fugene HD. After 4-6 h, media containing a 1:5 dilution of PGRN conditioned media was added to the cells with or without blockers [1 or 10 uM Sortilin pro-peptide; 6.7 or 67 nM goat anti-Sortilin antibody (SORT1 Ab, R&D Systems, AF3154) or control IgG (R&D Systems, AB-108-C)]. Cell supernatant was collected after 48 h and analyzed using a PGRN Elisa Duoset kit (R&D Systems, DY2420).
For orientation: ELISA stands for enzyme-linked immunosorbent assay.

The target in assay [2] is T1, Sortilin. Put plainly: Cell-based microscopy assay: DyLight-650 PGRN binding and endocytosis. Also on record: expressed in transfected cells; host or cells: HEK293T. The settings on record: 10 μM blocker with 40 nM DyLight-650 PGRN, listed as sortilin pro-peptide. The protocol:
HEK293T cells were transiently transfected with constructs for expressing sortilin or LacZ (control) and incubated with PGRN labeled using DyLight-650 (Life Technologies, Carlsbad, Calif.) for up to 60 minutes at 37° C. Binding and endocytosis of PGRN were observed by fluorescence microscopy. Recombinant human Progranulin (Adipogen) was labeled with DyLight 650 (Life Technologies, Carlsbad, Calif.). Cells were transiently transfected with human Sortilin or lacZ (control) and GFP using Fugene and harvested after 24 h. GFP was either expressed by a second vector (Topo3.3, Invitrogen) or located on the same vector, separated by an IRES (pCMV6-AC-IRES-GFP, Origene). Full-length Sortilin was used either untagged (Topo3.3) or with a C-terminal myc tag (pCMV6-AC-IRES-GFP). Cells were then plated on microscopy chambered glass slides coated with poly-1-lysine. After 4-6 h, cells were washed in OptiMem serum-free media, and 40 nM Progranulin-650 was added with or without 10 uM Sortilin pro-peptide as a blocker. Cells were incubated at 37° C. for up to 60′. Subsequently, cells were fixed in 4% paraformaldehyde, washed in PBS and imaged on a Nikon fluorescent microscope.

Assay [3] has as its target T1, Sortilin. Put plainly: FACS assay: sortilin-mediated PGRN-DyLight650 binding and endocytosis. Also on record: Full-length Sortilin was used either untagged (Topo3.3) or with a C-terminal myc tag (pCMV6-AC-IRES-GFP); myc (only in the pCMV6-AC-IRES-GFP construct); expressed in transfected cells; host or cells: HEK293T. Particulars: FIG. 10B. The assay is classed as cell-based. A general note: Flow cytometry measures light scatter and fluorescence of single cells or particles in a stream.
Description: Sortilin-expressing cells were GFP-positive, and untransfected cells were GFP-negative (as labeled in FIG. 10A).
A second assay was developed using DyLight-650-conjugated PGRN protein. In this assay, binding and endocytosis of PGRN were observed using either fluorescence microscopy (FIG. 9A-9F) or FACS (FIGS. 10A and 10B).

Take “sortilin pro-domain peptide: peptide of the Sortilin1 pro-domain used as a blocker of PGRN binding (QDRLDAPPPPAAPLPRWSGPIGVSWGLRAAAAGGAFPRGGRWRR)”: in the assay with Sortilin [1], the “PGRN levels in the media (rescue of sortilin-mediated reduction)” value was “partially rescued”. Further, in the assay with Sortilin [2], the “PGRN binding and endocytosis (DyLight-650 fluorescence)” value is reported as “not observed; also recorded: little signal”. The “blocking of PGRN binding to transfected cells” value with Sortilin [3] is on record as “blocked”.

(Values after patent US10849992B1, “Methods of screening for sortilin binding antagonists” (ALECTOR LLC, priority 2015, dated 2020).)
